Results: patent US20220002427A1 (ENGMAB SARL, published 2022)
Where “and” joins values, the source holds several entries; their conditions need not be identical. Identical values can stand only once.

Key:
[1] = target: T1, human BCMA on cells (human, UniProt Q02223 1-184); experiment: cell-based or functional assay
T1 sequence (looked up): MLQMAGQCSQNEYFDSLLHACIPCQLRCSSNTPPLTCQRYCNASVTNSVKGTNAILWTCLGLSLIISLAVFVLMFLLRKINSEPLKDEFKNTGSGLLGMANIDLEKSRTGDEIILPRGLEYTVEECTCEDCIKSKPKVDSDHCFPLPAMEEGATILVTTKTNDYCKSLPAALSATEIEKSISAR

[2] = target: T1, human BCMA on cells; experiment: cell-based or functional assay; remark: listed apart in the source
[3] = target: T1, human BCMA on cells; experiment: cell-based or functional assay; remark: listed apart in the source
[4] = target: T1, human BCMA on cells; experiment: cell-based or functional assay; remark: listed apart in the source
[5] = target: T1, human BCMA on cells; experiment: cell-based or functional assay; remark: listed apart in the source
[6] = target: T1, human BCMA on cells; experiment: cell-based or functional assay; remark: listed apart in the source
[7] = target: T1, human BCMA on cells; experiment: flow cytometry on H929 multiple myeloma cells, PE anti-human Fc F(ab')2 detection; estimated EC50
Description: (§1) Briefly, cultured cells are harvested, counted and cell viability was evaluated using ViCell. Viable cells are then adjusted to 2×10⁶ cells per ml in BSA-containing FACS Stain Buffer (BD Biosciences). 100 μl of this cell suspension were further aliquoted per well into a round-bottom 96-well plate and incubated with 30 μl of the anti-BCMA antibodies or corresponding IgG control for 30 min at 4° c. All Anti-BCMA/anti-CD3 TCB antibodies (and TCB controls) were titrated and analyzed in final concentration range between 1-300 nM. Cells were then centrifuged (5 min, 350×g), washed with 120 μl/well FACS Stain Buffer (BD Biosciences), resuspended and incubated for an additional 30 min at 4° C. with fluorochrome-conjugated PE-conjugated AffiniPure F(ab′)2 Fragment goat anti-human IgG Fc Fragment Specific (Jackson Immuno Research Lab; 109-116-170). Cells were then washed twice with Stain Buffer (BD Biosciences), fixed using 100 ul BD Fixation buffer per well (#BD Biosciences, 554655) at 4° C. for 20 min, resuspended in 120 μl FACS buffer and analyzed using BD FACS CantoII.

[8] = target: T1, human BCMA on cells; experiment: flow cytometry on L363 multiple myeloma cells, PE anti-human Fc F(ab')2 detection; estimated EC50
Description: as §1

[9] = target: T1, human BCMA on cells; experiment: flow cytometry on RPMI-8226 multiple myeloma cells, PE anti-human Fc F(ab')2 detection; asterisk: extrapolated by Prism
Description: as §1

B1: 83A10-TCBcv (bispecific antibody, human IgG1, kappa, L234A L235A)
heavy 1: not shown
heavy 2: not shown
light 1: not shown
light 2: EVQLLESGGGLVQPGGSLRLSCAASGFTFSTYAMNWVRQAPGKGLEWVSRIRSKYNNYATYYADSVKGRFTISRDDSKNTLYLQMNSLRAEDTAVYYCVRHGNFGNSYVSWFAYWGQGTLVTVSSASVAAPSVFIFPPSDEQLKSGTASVVCLLNNFYPREAKVQWKVDNALQSGNSQESVTEQDSKDSTYSLSSTLTLSKADYEKHKVYACEVTHQGLSSPVTKSFNRGEC
notes: also called anti-BCMA/anti-CD3 T cell bispecific antibody 83A10-TCBcv
EC50 of Granzyme B secretion, PBMC plus RPMI-8226 cells (CBA) [1]: 0.34 nM
EC50 of IL-10 secretion, PBMC plus RPMI-8226 cells (CBA) [1]: 0.3 nM
EC50 of TNF-α secretion, PBMC plus RPMI-8226 cells (CBA) [1]: 0.52 nM
EC50 of redirected T-cell killing of H929 cells (LDH release), Donor 1 [2]: 0.0039 nM
EC50 of redirected T-cell killing of H929 cells (LDH release), Donor 3 [2]: 0.0085 nM
EC50 of redirected T-cell killing of H929 cells (LDH release), Donor 4 [2]: 0.005 nM
EC50 of redirected T-cell killing of H929 cells (LDH release), Donor 5 [2]: 0.0043 nM
EC50 of redirected T-cell killing of H929 cells (LDH release), Donor 6 [2]: 0.0015 nM
EC50 of redirected T-cell killing of L363 cells (LDH release), Donor 1 [3]: 0.0168 nM
EC50 of redirected T-cell killing of L363 cells (LDH release), Donor 2 [3]: 0.0478 nM
EC50 of redirected T-cell killing of L363 cells (LDH release), Donor 3 [3]: 0.0284 nM
EC50 of redirected T-cell killing of L363 cells (LDH release), Donor 4 [3]: 0.0126 nM
EC50 of redirected T-cell killing of L363 cells (LDH release), Donor 5 [3]: 0.039 nM
EC50 of redirected T-cell killing of RPMI-8226 cells (LDH release), Donor 2 [4]: 0.621 nM
EC50 of redirected T-cell killing of RPMI-8226 cells (LDH release), Donor 3 [4]: 0.229 nM
EC50 of redirected T-cell killing of RPMI-8226 cells (LDH release), Donor 4 [4]: 0.035 nM
EC50 of redirected T-cell killing of RPMI-8226 cells (LDH release), Donor 5 [4]: 0.0649 nM
Annexin-V positive JJN-3 cells (%) at 0.1 pM TCB, Experiment 2 [5]: 13.1%
Annexin-V positive JJN-3 cells (%) at 1 pM TCB, Experiment 1 [5]: 11.4%
Annexin-V positive JJN-3 cells (%) at 1 pM TCB, Experiment 2 [5]: 14.3%
Annexin-V positive JJN-3 cells (%) at 10 pM TCB, Experiment 1 [5]: 11.1%
Annexin-V positive JJN-3 cells (%) at 10 pM TCB, Experiment 2 [5]: 15.9%
Annexin-V positive JJN-3 cells (%) at 100 pM TCB, Experiment 1 [5]: 9.12%
Annexin-V positive JJN-3 cells (%) at 100 pM TCB, Experiment 2 [5]: 16.5%
Annexin-V positive JJN-3 cells (%) at 1000 pM TCB, Experiment 1 [5]: 10.2%
Annexin-V positive JJN-3 cells (%) at 1000 pM TCB, Experiment 2 [5]: 17.5%
Annexin-V positive JJN-3 cells (%) at 10000 pM TCB, Experiment 1 [5]: 16.8%
Annexin-V positive JJN-3 cells (%) at 10000 pM TCB, Experiment 2 [5]: 22.9%
Lysis of JJN-3 cells (%) at 0.1 pM TCB, Experiment 2 [6]: 22.3%
Lysis of JJN-3 cells (%) at 1 pM TCB, Experiment 1 [6]: 24.4%
Lysis of JJN-3 cells (%) at 1 pM TCB, Experiment 2 [6]: -1.88%
Lysis of JJN-3 cells (%) at 10 pM TCB, Experiment 1 [6]: 41.9%
Lysis of JJN-3 cells (%) at 10 pM TCB, Experiment 2 [6]: 39.6%
Lysis of JJN-3 cells (%) at 100 pM TCB, Experiment 1 [6]: 18.4%
Lysis of JJN-3 cells (%) at 100 pM TCB, Experiment 2 [6]: 20.1%
Lysis of JJN-3 cells (%) at 1000 pM TCB, Experiment 1 [6]: 26.7%
Lysis of JJN-3 cells (%) at 1000 pM TCB, Experiment 2 [6]: 25.3%
Lysis of JJN-3 cells (%) at 10000 pM TCB, Experiment 1 [6]: 70.3%
Lysis of JJN-3 cells (%) at 10000 pM TCB, Experiment 2 [6]: 51.2%
EC50 [7]: 12 nM and 1.73 µg/mL
EC50 [8]: 17.4 nM and 2.51 µg/mL
EC50 [9]: > 300 nM and ~27200 µg/mL
